# Ends that are not written are not given here.
# B1: Peptide-8 (peptide)
# peptide: CFAYLWIDSWIRVC
# modifications: cysteine pairing not given here; also: biotinylated when captured on plate, site not given here
# notes: biotinylated when captured on the plate
# B2: Peptide-7 (peptide)
# peptide: FCTPREWSFLNFVC
# modifications: cysteine pairing not given here; also: biotinylated when captured on plate, site not given here
# notes: as for B1
# B3: Peptide-6 (peptide)
# peptide: VNCMRVHRTLTWCV
# modifications: cysteine pairing not given here; also: biotinylated when captured on plate, site not given here
# notes: as for B1
# B4: Peptide-50 (peptide)
# peptide: MDWCPVHLWSVCFA
# modifications: cysteine pairing not given here; also: biotinylated, site not given here
# notes: Synthetic biotinylated peptide loaded on streptavidin biosensors
# B5: Peptide-49 (peptide)
# peptide: MHWCPVDLWYLCYN
# modifications: cysteine pairing not given here; also: biotinylated, site not given here
# notes: as for B4
# Columns and labels:
# [1] = target: T1, Anti-CD28 scFv (VH-linker 1-VL) (biotinylated (site not stated)); assay: phage ELISA, scFv wells pre-incubated with soluble CD28 (competitor); background signal 0.073
# T1 construct: biotinylated and captured on neutravidin coated plates in the phage ELISA
# [2] = target: T1, Anti-CD28 scFv (VH-linker 1-VL); assay: phage ELISA, captured biotinylated scFv; background signal 0.073
# [3] = target: T2, anti-CD28 scFv (SEQ ID NO: 9); assay: competition ELISA: peptide titrated against 2 nM anti-CD28 scFv; binding of the scFv to captured biotinylated CD28 antigen is read; table prints 'IC50 nM' but the axis is Log [Peptide, uM]; no fall of the signal
# T2 construct: also called Anti-CD28 scFv (VH-linker 1-VL)
# [4] = target: T3, Ab-12, anti-PD-L1xCD28 non-masked antibody in Vh format; assay: competition ELISA: peptide titrated against 5 nM Ab-12; binding of Ab-12 to captured biotinylated CD28 antigen is read; table prints 'IC50 nM' but the axis is Log [Peptide, uM]; no fall of the signal
# T3 construct: also called PDL1xCD28 non-masked (Vh)
# [5] = target: T1, Anti-CD28 scFv (VH-linker 1-VL); assay: phage ELISA, scFv wells pre-incubated with soluble CD28 (competitor); background signal 0.065
# [6] = target: T1, Anti-CD28 scFv (VH-linker 1-VL); assay: phage ELISA, captured biotinylated scFv; background signal 0.065
# [7] = target: T1, Anti-CD28 scFv (VH-linker 1-VL); assay: phage ELISA, captured biotinylated scFv; background signal 0.062
# [8] = target: T1, Anti-CD28 scFv (VH-linker 1-VL); assay: phage ELISA, scFv wells pre-incubated with soluble CD28 (competitor); background signal 0.062
# [9] = target: T1, Anti-CD28 scFv (VH-linker 1-VL); assay: phage ELISA, captured biotinylated scFv; background signal 0.071
# [10] = target: T1, Anti-CD28 scFv (VH-linker 1-VL); assay: phage ELISA, scFv wells pre-incubated with soluble CD28 (competitor); background signal 0.071
# [11] = target: T3, Ab-12, anti-PD-L1xCD28 non-masked …; assay: competition ELISA: peptide titrated against 5 nM Ab-12; binding of Ab-12 to captured biotinylated CD28 antigen is read
# [12] = target: T1, Anti-CD28 scFv (VH-linker 1-VL); assay: phage ELISA, scFv wells pre-incubated with soluble CD28 (competitor); background signal 0.063
binder,measurement,setting,value
MDWCPMHLWHQCFN [Phage-39],Phage binding ELISA CD28 scFv signal in presence of CD28,[1],0.299
same,Phage binding ELISA CD28 scFv signal,[2],2.56
MNWCPKDIWYLCFN [Phage-22],Phage binding ELISA CD28 scFv signal in presence of CD28,[1],0.168
same,Phage binding ELISA CD28 scFv signal,[2],2.62
B1,IC50,[3],> 100 nM
same,IC50,[4],> 100 nM
B2,IC50,[3],> 100 nM
MDWCPSYLWNECFF [Phage-62],Phage binding ELISA CD28 scFv signal in presence of CD28,[5],0.133
same,Phage binding ELISA CD28 scFv signal,[6],2
MDWCPIDLWHLCFY [Phage-90],Phage binding ELISA CD28 scFv signal,[7],2.59
same,Phage binding ELISA CD28 scFv signal in presence of CD28,[8],0.488
MDWCPRDSWHLCFA [Phage-59],Phage binding ELISA CD28 scFv signal in presence of CD28,[1],0.147
same,Phage binding ELISA CD28 scFv signal,[2],2.45
MDWCPMHLWNKCFN [Phage-53],Phage binding ELISA CD28 scFv signal,[9],1.04
same,Phage binding ELISA CD28 scFv signal in presence of CD28,[10],0.122
MDWCPRHLWVHCFN [Phage-42],Phage binding ELISA CD28 scFv signal,[9],2.5
same,Phage binding ELISA CD28 scFv signal in presence of CD28,[10],0.254
MAWCPRDKWSECFS [Phage-41],Phage binding ELISA CD28 scFv signal,[7],0.853
same,Phage binding ELISA CD28 scFv signal in presence of CD28,[8],0.147
MDWCPINLWDECFS [Phage-52],Phage binding ELISA CD28 scFv signal,[7],1.5
same,Phage binding ELISA CD28 scFv signal in presence of CD28,[8],0.096
B3,IC50,[3],> 100 nM
MDWCPLYLWNECFN [Phage-24],Phage binding ELISA CD28 scFv signal in presence of CD28,[5],0.247
same,Phage binding ELISA CD28 scFv signal,[6],2.61
MDWCPMYLWNECFS [Phage-80],Phage binding ELISA CD28 scFv signal in presence of CD28,[10],0.411
B4,IC50,[11],2340 nM
MHWCPMDQWSNCFN [Phage-56],Phage binding ELISA CD28 scFv signal,[7],0.515
same,Phage binding ELISA CD28 scFv signal in presence of CD28,[8],0.084
MDWCPRHRWVDCFY [Phage-57],Phage binding ELISA CD28 scFv signal in presence of CD28,[1],0.11
same,Phage binding ELISA CD28 scFv signal,[2],0.478
MDWCPRDMWSVCFS [Phage-32],Phage binding ELISA CD28 scFv signal,[7],2.62
same,Phage binding ELISA CD28 scFv signal in presence of CD28,[8],0.207
MDWCPRDLWSLCFY [Phage-94],Phage binding ELISA CD28 scFv signal in presence of CD28,[5],0.246
same,Phage binding ELISA CD28 scFv signal,[6],2.57
B5,IC50,[11],170 nM
MDWCPRYLWHECFA [Phage-71],Phage binding ELISA CD28 scFv signal,[9],2.63
same,Phage binding ELISA CD28 scFv signal in presence of CD28,[10],0.429
MDWCPRYLWTECFN [Phage-100],Phage binding ELISA CD28 scFv signal,[7],2.56
same,Phage binding ELISA CD28 scFv signal in presence of CD28,[8],0.549
MDWCPRFLWDECFN [Phage-83],Phage binding ELISA CD28 scFv signal in presence of CD28,[5],0.483
same,Phage binding ELISA CD28 scFv signal,[6],2.63
MDWCPRFLWSECFN [Phage-95],Phage binding ELISA CD28 scFv signal,[7],2.57
same,Phage binding ELISA CD28 scFv signal in presence of CD28,[8],0.227
MDWCPRALWHECFN [Phage-73],Phage binding ELISA CD28 scFv signal,[9],2.69
same,Phage binding ELISA CD28 scFv signal in presence of CD28,[10],0.401
ITWCPSSMWNRCFI [Phage-70],Phage binding ELISA CD28 scFv signal in presence of CD28,[5],0.11
same,Phage binding ELISA CD28 scFv signal,[6],0.379
MDWCPRYLWAECFY [Phage-102],Phage binding ELISA CD28 scFv signal in presence of CD28,[12],0.354
MDWCPIHMWADCFA [Phage-69],Phage binding ELISA CD28 scFv signal in presence of CD28,[5],0.143
same,Phage binding ELISA CD28 scFv signal,[6],2.46
MDWCPRDLWVHCFA [Phage-29],Phage binding ELISA CD28 scFv signal,[7],2.55
same,Phage binding ELISA CD28 scFv signal in presence of CD28,[8],0.179
MDWCPMDLWDYCFN [Phage-51],Phage binding ELISA CD28 scFv signal,[9],1.64
same,Phage binding ELISA CD28 scFv signal in presence of CD28,[10],0.107
MDWCPRALWNVCFN [Phage-89],Phage binding ELISA CD28 scFv signal in presence of CD28,[5],0.472
same,Phage binding ELISA CD28 scFv signal,[6],2.6

# From patent US20230357447A1 (JANUX THERAPEUTICS, published 2023)
